The values below come from paper PMC4931565, “Higher‐order assemblies of oligomeric cargo receptor complexes form the membrane scaffold of the Cvt vesicle” (EMBO Reports, 2016).

The data set deals with the molecule itself. The data set can be described thus: SEC-MALS; Atg19 about 2 mg/ml, 50 mM Tris pH 7.5, 150 mM NaCl, 0.5 mM TCEP, Superose 6 increase, room temperature, triplicate.

B1: Saccharomyces cerevisiae Atg19 (MBP tag cleaved) (natural protein, S. cerevisiae, UniProt P35193 1-415, looked up)
chain: MNNSKTNQQMNTSMGYPLTVYDECNKFQLIVPTLDANIMLWCIGQLSLLNDSNGCKHLFWQPNDKSNVRILLNNYDYGHLFKYLQCQRKCSVYIGEGTLKKYNLTISTSFDNFLDLTPSEEKESLCREDAHEDPVSPKAGSEEEISPNSTSNVVVSRECLDNFMKQLLKLEESLNKLELEQKVTNKEPNHRISGTIDIPEDRSELVNFFTELKTVKQLEDVFQRYHDYERLSQECDSKTEIASDHSKKETKIEVEPPNERSLQITMNQRDNSLYFQLFNNTNSVLAGNCKLKFTDAGDKPTTQIIDMGPHEIGIKEYKEYRYFPYALDLEAGSTIEIENQYGEVIFLGKYGSSPMINLRPPSRLSAESLQASQEPFYSFQIDTLPELDDSSIISTSISLSYDGDDNEKALTWEEL
notes: autophagy receptor Atg19 of S. cerevisiae, from cDNA; also called trimeric Atg19; source: Sf21, purified (amylose beads, TEV cleavage, DEAE ion exchange); or co-purified with prApe1 (amylose beads, TEV cleavage, Superose 6); not shown: MBP, N-terminal, cleaved
In the case of B1, the “stoichiometry N” value was 3.

In general, stoichiometry N refers to the number of molecules, sites or subunits per partner or assembly.
